Test results as given in patent US20210293825.

B1: purified recombinant SGK3 (Thermo Scientific #PV3859) (protein)
chain: MQRDHTMDYKESCPSVSIPSSDEHREKKKRFTVYKVLVSVGRSEWFVFRRYAEFDKLYNTLKKQFPAMALKIPAKRIFGDNFDPDFIKQRRAGLNEFIQNLVRYPELYNHPDVRAFLQMDSPKHQSDPSEDEDERSSQKLHSTSQNINLGPSGNPHAKPTDFDFLKVIGKGSFGKVLLAKRKLDGKFYAVKVLQKKIVLNRKEQKHIMAERNVLLKNVKHPFLVGLHYSFQTTEKLYFVLDFVNGGELFFHLQRERSFPEHRARFYAAEIASALGYLHSIKIVYRDLKPENILLDSVGHVVLTDFGLCKEGIAISDTTTTFCGTPEYLAPEVIRKQPYDNTVDWWCLGAVLYEMLYGLPPFYCRDVAEMYDNILHKPLSLRPGVSLTAWSILEELLEKDRQNRLGAKEDFLEIQNHPFFESLSWADLVQKKIPPPFNPNVAGPDDIRNFDTAFTEETVPYSVCVSSDYSIVNASVLEADDAFVGFSYAPPSEDLFL
B2: purified recombinant RAF1 (Raf-1, EMD Millipore #17-360) (protein)
chain: SQPKTPVPAQRERAPVSGTQEKNKIRPRGQRDSSYYWEIEASEVMLSTRIGSGSFGTVYKGKWHGDVAVKILKVVDPTPEQFQAFRNEVAVLRKTRHVNILLFMGYMTKDNLAIVTQWCEGSSLYKHLHVQETKFQMFQLIDIARQTAQGMDYLHAKNIIHRDMKSNNIFLHEGLTVKIGDFGLATVKSRWSGSQQVEQPTGSVLWMAPEVIRMQDNNPFSFQSDVYSYGIVLYELMTGELPYSHINNRDQIIFMVGRGYASPDLSKLYKNCPKAMKRLVADCVKKVKEERPLFPQILSSIELLQHSLPKINRSASEPSLHRAAHTEDINACTLTTSPRLPVF

Target: HSP90β/CDC37 heterocomplex of purified recombinant HSP90β and CDC37 (in vitro kinase assay), P08238
Sequence (P08238 whole entry, chain 1 of 2): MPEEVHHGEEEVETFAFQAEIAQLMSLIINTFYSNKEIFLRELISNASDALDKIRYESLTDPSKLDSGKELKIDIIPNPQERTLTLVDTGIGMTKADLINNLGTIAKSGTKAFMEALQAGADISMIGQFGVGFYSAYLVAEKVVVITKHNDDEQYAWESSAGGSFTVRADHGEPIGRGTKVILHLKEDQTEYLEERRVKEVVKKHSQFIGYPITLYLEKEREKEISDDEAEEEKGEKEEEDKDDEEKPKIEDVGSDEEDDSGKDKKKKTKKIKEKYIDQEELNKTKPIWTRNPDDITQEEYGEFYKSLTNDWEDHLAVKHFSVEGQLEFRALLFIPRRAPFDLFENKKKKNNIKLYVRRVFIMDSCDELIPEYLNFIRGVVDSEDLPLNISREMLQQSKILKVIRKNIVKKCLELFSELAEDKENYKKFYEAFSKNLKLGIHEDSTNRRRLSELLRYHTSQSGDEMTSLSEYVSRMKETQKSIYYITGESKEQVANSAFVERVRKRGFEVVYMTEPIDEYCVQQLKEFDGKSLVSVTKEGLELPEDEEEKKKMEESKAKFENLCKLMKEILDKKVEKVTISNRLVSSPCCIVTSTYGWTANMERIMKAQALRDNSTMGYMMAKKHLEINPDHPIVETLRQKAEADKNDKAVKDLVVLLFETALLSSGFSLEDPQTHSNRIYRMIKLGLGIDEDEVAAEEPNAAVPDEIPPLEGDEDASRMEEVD
Sequence (chain, as listed by the source, chain 2 of 2): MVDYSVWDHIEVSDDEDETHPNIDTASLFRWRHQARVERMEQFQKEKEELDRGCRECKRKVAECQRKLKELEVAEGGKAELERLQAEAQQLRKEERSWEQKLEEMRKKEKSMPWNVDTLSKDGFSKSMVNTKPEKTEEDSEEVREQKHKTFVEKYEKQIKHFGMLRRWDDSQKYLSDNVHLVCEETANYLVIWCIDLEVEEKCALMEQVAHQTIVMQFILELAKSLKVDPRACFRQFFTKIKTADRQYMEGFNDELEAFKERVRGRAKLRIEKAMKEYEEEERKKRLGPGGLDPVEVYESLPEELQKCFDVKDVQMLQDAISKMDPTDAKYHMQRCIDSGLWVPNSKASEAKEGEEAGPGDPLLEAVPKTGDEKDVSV

Protein	phosphorylation of HSP90β (in vitro kinase assay, Western blot)	RAF1 activity (autophosphorylation of RAF1 in an in vitro kinase assay, Western blot)
B1	SGK3 increased phosphorylation of HSP90β, and that phosphorylation was further increased in the presence of KBU2046	
B2		In the absence of CDC37/HSP90β heterocomplex, RAF1 activity was much lower
